Assay results reported in US12723078 (University of Texas, dated 2026).

Columns and labels:
LILRB4 = molecular target: T1, LILRB4 (human, UniProt Q8NHJ6); assay: ELISA
T1 construct: not the cell-surface form of MOLECULES; also called LILRB4 protein of the ELISA and Octet specificity tests

LILRB5 = molecular target: T2, LILRB5; assay: ELISA
T2 construct: not the cell-surface form of MOLECULES; also called LILRB5 protein of the ELISA and Octet specificity tests; not shown: Fc or tag of the recombinant LILRB5 construct, if any
T2 sequence (chain, as listed by the source limits assumed): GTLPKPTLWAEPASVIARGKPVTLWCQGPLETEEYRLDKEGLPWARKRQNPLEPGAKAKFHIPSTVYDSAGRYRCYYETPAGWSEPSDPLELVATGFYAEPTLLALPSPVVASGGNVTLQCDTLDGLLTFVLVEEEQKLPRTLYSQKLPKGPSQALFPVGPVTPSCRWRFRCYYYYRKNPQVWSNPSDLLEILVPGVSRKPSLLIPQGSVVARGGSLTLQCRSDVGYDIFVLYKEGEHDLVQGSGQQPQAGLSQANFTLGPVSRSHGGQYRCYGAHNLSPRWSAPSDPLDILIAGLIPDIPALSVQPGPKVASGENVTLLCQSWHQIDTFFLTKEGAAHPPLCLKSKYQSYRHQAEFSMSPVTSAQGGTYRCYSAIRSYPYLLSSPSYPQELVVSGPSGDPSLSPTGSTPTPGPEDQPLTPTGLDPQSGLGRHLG

LILRA1 = molecular target: T3, LILRA1 (human, UniProt O75019); assay: ELISA
T3 construct: not the cell-surface form of MOLECULES; also called LILRA1 protein of the ELISA and Octet specificity tests
T3 sequence (O75019 17-461 limits assumed): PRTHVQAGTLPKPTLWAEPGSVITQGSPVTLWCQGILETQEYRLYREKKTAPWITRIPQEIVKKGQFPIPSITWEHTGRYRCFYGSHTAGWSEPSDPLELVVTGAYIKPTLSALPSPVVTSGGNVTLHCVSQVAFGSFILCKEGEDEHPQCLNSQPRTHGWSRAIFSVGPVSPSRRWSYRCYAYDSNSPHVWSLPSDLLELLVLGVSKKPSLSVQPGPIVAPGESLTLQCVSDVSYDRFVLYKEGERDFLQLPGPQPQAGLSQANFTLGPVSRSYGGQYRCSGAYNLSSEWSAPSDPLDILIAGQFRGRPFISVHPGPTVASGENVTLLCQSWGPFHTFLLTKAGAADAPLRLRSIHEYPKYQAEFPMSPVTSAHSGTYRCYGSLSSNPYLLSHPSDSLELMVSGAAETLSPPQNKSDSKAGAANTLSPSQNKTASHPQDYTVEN

LILRA2 = molecular target: T4, LILRA2 (human, UniProt Q8N149); assay: ELISA
T4 construct: not the cell-surface form of MOLECULES; also called LILRA2 protein of the ELISA and Octet specificity tests

LILRA3 = molecular target: T5, LILRA3 (human, UniProt Q8N6C8); assay: ELISA
T5 construct: not the cell-surface form of MOLECULES; also called LILRA3 protein of the ELISA and Octet specificity tests
T5 sequence (Q8N6C8 24-439 limits assumed): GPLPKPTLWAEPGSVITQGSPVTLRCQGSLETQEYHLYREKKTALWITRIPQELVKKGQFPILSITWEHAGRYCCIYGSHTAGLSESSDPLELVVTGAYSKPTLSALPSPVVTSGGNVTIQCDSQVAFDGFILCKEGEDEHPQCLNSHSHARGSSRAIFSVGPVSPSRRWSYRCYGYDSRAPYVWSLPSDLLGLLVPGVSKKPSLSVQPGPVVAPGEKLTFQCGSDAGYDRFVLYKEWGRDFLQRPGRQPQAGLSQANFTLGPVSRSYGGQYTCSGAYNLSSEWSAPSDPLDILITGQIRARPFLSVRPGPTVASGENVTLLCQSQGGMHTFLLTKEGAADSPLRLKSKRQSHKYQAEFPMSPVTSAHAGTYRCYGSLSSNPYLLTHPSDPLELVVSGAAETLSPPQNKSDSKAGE

LILRA4 = molecular target: T6, LILRA4 (human, UniProt P59901); assay: ELISA
T6 construct: not the cell-surface form of MOLECULES; also called LILRA4 protein of the ELISA and Octet specificity tests

D1-Fc = molecular target: T7, D1-Fc (human, UniProt Q8NHL6); assay: ELISA on LILRB1 domain-Fc fusion proteins
T7 construct: D1 domain; also called LILRB1 D1-Fc
T7 sequence (Q8NHL6 27-115 limits assumed): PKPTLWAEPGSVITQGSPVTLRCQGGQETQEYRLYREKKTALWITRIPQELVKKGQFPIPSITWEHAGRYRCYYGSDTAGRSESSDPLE

D3-Fc = molecular target: T8, D3-Fc (human, UniProt Q8NHL6); assay: ELISA on LILRB1 domain-Fc fusion proteins
T8 construct: D3 domain; also called LILRB1 D3-Fc
T8 sequence (Q8NHL6 222-312 limits assumed): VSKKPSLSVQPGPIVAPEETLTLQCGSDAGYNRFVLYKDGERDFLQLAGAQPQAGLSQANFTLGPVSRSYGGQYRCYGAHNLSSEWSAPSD

D4SR-Fc = molecular target: T9, D4SR-Fc (human, UniProt Q8NHL6); assay: ELISA on LILRB1 domain-Fc fusion proteins
T9 construct: D4 and stalk region

SR-Fc = molecular target: T10, SR-Fc (human, UniProt Q8NHL6); assay: ELISA on LILRB1 domain-Fc fusion proteins
T10 construct: stalk region
T10 sequence (Q8NHL6 410-461 limits assumed): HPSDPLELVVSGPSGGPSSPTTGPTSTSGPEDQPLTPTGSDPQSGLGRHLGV

D23-Fc = molecular target: T11, D23-Fc (human, UniProt Q8NHL6); assay: ELISA on LILRB1 domain-Fc fusion proteins
T11 construct: D2-D3
T11 sequence (Q8NHL6 116-312 limits assumed): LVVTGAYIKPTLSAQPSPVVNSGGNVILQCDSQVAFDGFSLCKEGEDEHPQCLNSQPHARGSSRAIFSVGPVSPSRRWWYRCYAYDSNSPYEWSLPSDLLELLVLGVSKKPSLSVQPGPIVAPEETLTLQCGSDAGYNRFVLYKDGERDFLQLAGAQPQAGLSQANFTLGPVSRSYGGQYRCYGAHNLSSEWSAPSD

D34SR-Fc = molecular target: T12, D34SR-Fc (human, UniProt Q8NHL6); assay: ELISA on LILRB1 domain-Fc fusion proteins
T12 construct: D3-D4 and stalk region

D234SR-Fc = molecular target: T13, D234SR-Fc (human, UniProt Q8NHL6); assay: ELISA on LILRB1 domain-Fc fusion proteins
T13 construct: D2-D4 and stalk region
T13 sequence (Q8NHL6 116-461 limits assumed): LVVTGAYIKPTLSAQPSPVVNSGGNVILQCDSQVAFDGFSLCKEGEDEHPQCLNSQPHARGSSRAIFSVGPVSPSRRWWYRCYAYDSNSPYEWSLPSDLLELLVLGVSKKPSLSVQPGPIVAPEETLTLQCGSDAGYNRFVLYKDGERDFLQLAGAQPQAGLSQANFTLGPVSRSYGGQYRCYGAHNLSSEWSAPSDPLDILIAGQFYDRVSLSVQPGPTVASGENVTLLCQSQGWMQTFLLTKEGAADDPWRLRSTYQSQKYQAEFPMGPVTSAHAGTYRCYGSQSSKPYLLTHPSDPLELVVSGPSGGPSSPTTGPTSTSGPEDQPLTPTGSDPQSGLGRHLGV

LILRA1 on reporter cells [1] = molecular target: T14, LILRA1 on reporter cells (UniProt O75019 17-489, limits assumed); assay: flow cytometry on LILR reporter cells, anti-rabbit IgG PE
T14 construct: whole, on cells
T14 sequence (O75019 17-489 limits assumed): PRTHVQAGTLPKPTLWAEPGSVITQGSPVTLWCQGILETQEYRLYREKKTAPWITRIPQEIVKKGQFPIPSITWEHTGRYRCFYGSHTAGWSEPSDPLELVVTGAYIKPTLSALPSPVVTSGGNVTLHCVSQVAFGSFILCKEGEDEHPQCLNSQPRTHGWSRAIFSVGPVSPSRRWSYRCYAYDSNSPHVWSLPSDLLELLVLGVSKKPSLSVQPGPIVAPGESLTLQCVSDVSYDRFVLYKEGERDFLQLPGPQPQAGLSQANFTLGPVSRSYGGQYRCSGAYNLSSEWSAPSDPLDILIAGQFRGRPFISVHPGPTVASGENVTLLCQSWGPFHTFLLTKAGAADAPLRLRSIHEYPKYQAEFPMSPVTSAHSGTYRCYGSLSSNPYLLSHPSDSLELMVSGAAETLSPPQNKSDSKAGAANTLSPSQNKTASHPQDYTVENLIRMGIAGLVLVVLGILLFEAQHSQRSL

LILRA2 on reporter cells [2] = molecular target: T15, LILRA2 on reporter cells (UniProt Q8N149 24-483); assay: as above
T15 construct: whole, on cells
T15 sequence (Q8N149 24-483): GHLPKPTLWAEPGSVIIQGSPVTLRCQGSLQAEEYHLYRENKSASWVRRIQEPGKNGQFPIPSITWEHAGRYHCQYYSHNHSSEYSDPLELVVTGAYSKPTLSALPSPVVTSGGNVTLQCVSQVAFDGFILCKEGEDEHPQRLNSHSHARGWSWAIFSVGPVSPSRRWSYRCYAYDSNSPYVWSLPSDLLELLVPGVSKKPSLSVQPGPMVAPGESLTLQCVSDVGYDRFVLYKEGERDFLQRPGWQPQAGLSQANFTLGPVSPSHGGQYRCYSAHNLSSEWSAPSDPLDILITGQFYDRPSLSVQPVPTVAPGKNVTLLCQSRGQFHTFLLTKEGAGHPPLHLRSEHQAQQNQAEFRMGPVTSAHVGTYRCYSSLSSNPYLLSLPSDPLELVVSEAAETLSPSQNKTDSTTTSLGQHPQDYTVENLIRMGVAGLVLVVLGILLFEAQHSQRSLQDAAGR

LILRB2 on reporter cells = molecular target: T16, LILRB2 on reporter cells (UniProt Q8N423 22-597); assay: flow cytometry on LILR reporter cells, 0.5 µg/mL rabbit B1-176, anti-rabbit IgG PE
T16 construct: whole, on cells; The construct is not described

LILRB3 on reporter cells = molecular target: T17, LILRB3 on reporter cells (UniProt O75022 24-631, limits assumed); assay: as above
T17 construct: whole, on cells

LILRB4 on reporter cells = molecular target: T18, LILRB4 on reporter cells (UniProt Q8NHJ6 22-448); assay: as above
T18 construct: whole, on cells

LILRB5 on reporter cells = molecular target: T19, LILRB5 on reporter cells (UniProt O75023 24-590, limits assumed); assay: as above
T19 construct: whole, on cells

LILRA1 on reporter cells [3] = molecular target: T14, LILRA1 on reporter cells; assay: as above
[4] = molecular target: T20, LILRB1 expressed on cell surface (human, UniProt Q8NHL6 24-650); assay: as above
T20 construct: One entry is used for LILRB1 on reporter cells and on NK cells; also called LILRB1 NFAT-GFP reporter cell; LILRB1 reporter cells
T20 sequence (Q8NHL6 24-650 limits assumed): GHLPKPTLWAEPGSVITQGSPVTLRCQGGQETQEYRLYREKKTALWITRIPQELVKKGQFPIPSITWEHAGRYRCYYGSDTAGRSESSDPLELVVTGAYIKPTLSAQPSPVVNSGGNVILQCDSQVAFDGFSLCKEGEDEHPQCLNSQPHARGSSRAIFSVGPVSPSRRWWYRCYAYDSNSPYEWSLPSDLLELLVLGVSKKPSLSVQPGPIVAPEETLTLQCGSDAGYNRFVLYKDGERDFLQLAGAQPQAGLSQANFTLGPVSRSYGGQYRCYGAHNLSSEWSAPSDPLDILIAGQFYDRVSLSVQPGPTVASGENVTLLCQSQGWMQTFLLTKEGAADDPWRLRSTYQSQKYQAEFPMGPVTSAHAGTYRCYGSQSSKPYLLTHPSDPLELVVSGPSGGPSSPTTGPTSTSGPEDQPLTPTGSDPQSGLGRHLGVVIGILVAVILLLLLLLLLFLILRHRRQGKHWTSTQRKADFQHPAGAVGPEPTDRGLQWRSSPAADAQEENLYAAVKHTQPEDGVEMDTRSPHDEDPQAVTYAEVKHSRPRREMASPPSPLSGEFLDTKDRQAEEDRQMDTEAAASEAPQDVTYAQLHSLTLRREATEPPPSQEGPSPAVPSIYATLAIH

LILRA2 on reporter cells [5] = molecular target: T15, LILRA2 on reporter cells; assay: as above
LILRA3 on reporter cells = molecular target: T21, LILRA3 on reporter cells (UniProt Q8N6C8 24-439); assay: as above
T21 construct: whole, on cells
T21 sequence (Q8N6C8 24-439): as the sequence (Q8N6C8 24-439 limits assumed) above

LILRA4 on reporter cells = molecular target: T22, LILRA4 on reporter cells (UniProt P59901 24-499); assay: as above
T22 construct: whole, on cells

LILRA5 on reporter cells = molecular target: T23, LILRA5 on reporter cells (UniProt A6NI73 42-299); assay: as above
T23 construct: whole, on cells
T23 sequence (A6NI73 42-299): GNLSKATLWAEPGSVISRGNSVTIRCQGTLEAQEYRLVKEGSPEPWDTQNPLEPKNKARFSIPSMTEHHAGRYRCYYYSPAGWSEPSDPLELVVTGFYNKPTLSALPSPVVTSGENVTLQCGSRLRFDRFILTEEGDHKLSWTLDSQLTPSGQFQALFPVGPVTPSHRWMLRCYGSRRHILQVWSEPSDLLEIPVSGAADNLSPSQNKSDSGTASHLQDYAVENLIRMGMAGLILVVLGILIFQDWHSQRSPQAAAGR

LILRA6 on reporter cells = molecular target: T24, LILRA6 on reporter cells (UniProt Q6PI73 24-481); assay: as above
T24 construct: whole, on cells
T24 sequence (Q6PI73 24-481): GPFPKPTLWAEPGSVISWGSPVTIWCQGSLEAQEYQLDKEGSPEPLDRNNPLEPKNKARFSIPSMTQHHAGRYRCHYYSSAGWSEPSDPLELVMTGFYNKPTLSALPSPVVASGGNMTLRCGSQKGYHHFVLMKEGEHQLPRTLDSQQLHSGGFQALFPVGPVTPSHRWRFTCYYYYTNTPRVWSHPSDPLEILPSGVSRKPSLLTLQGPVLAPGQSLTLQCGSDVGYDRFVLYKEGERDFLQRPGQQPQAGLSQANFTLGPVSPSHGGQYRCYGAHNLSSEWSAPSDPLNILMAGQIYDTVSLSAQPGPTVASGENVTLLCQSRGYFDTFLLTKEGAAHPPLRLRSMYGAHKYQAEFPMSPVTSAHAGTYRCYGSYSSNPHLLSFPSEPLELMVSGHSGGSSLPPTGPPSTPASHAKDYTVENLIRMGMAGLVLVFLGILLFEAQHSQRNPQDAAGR

[6] = molecular target: T25, recombinant human LILRB1 protein (human, UniProt Q8NHL6 24-461); assay: Octet RED96 (BLI), antibody on protein G biosensors, recombinant LILRB1 in solution, FIG. 2E (not Table 14)
T25 construct: ELISA and Octet methods say only 'recombinant LILRB1'; also called recombinant LILRB1; LILRB1 recombinant proteins
T25 sequence (Q8NHL6 24-461 limits assumed): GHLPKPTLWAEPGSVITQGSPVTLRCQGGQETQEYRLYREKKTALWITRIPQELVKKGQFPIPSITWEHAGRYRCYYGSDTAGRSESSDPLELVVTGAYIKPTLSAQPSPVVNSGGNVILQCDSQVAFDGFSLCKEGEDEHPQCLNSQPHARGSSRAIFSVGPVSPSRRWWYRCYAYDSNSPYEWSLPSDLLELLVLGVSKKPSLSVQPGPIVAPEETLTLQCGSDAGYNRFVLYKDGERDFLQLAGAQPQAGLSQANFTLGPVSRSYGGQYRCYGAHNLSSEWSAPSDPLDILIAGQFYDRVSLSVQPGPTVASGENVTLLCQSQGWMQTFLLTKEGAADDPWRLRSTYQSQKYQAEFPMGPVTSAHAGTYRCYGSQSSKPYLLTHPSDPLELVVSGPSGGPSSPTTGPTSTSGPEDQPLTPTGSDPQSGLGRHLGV

B1: B1-176 rabbit antibody (antibody, V domains shown)
VH: QSLEESEGGLVKPGGTLTLTCTASGFSFSSSYCMCWVRQAPGKGLELIACIYTDSSGATYYASWAKGRFTISKSSSTTITLQMTSLTAADTATYFCARGWDYEDPGYTDTTYFSLWGPGTLVTVSS
VL: ELDLTQTPSSVEAAVGGTVTIKCQASQTIYTNLAWYQQKPGQPPNLLIYAASTLASGVSSRFKGSGSGTEFTLTISDLECADAATYYCQSYYGSSTTGNGFGGGTEVEIK
notes: Full-length rabbit IgG, kappa; Variable genes were cloned into a rabbit IgG expression vector and expressed in Expi293F cells
LILRB4
  binding result: no binding (tested: 10^3.0 ng/mL (1000 ng/mL))
LILRB5
  binding result: no binding (tested: 10^3.0 ng/mL (1000 ng/mL))
LILRA1
  binding result: no binding (tested: 10^3.0 ng/mL (1000 ng/mL))
LILRA2
  binding result: no binding (tested: 10^3.0 ng/mL (1000 ng/mL))
LILRA3
  binding result: no binding (tested: 10^3.0 ng/mL (1000 ng/mL))
LILRA4
  binding result: no binding (tested: 10^3.0 ng/mL (1000 ng/mL))
D1-Fc
  binding result: no binding (tested: not given)
D3-Fc
  binding result: no binding (tested: not given)
D4SR-Fc
  binding result: no binding (tested: not given)
SR-Fc
  binding result: no binding (tested: not given)
D23-Fc
  binding result: no binding (tested: not given)
D34SR-Fc
  binding result: no binding (tested: not given)
D234SR-Fc
  binding result: no binding (tested: not given)
LILRA1 on reporter cells [1]
  binding result: no binding (tested: 0.5 µg/mL)
LILRA2 on reporter cells [2]
  binding result: no binding (tested: 0.5 µg/mL)
LILRB2 on reporter cells
  percent of cells in the gate: 0.68%
LILRB3 on reporter cells
  percent of cells in the gate: 0.07%
LILRB4 on reporter cells
  percent of cells in the gate: 0.18%
LILRB5 on reporter cells
  percent of cells in the gate: 0.29%
LILRA1 on reporter cells [3]
  percent of cells in the gate: 0.12%
[4]
  percent of cells in the gate: 99%
LILRA2 on reporter cells [5]
  percent of cells in the gate: 0.11%
LILRA3 on reporter cells
  percent of cells in the gate: 0.1%
LILRA4 on reporter cells
  percent of cells in the gate: 0.074%
LILRA5 on reporter cells
  percent of cells in the gate: 0.1%
LILRA6 on reporter cells
  percent of cells in the gate: 0.12%
[6]
  Kd: ~0.01 nM
